Results published in publication PMC9409278, “Conformational Changes of α-Crystallin Proteins Induced by Heat Stress” (International Journal of Molecular Sciences, 2022).

Biological target: the molecule itself
Assay: SEC; HiPrep Sephacryl S-300 HR 16/60 column, 20 mM phosphate buffer, pH 7.4, 150 mM NaCl; each crystallin alone

B1: αB crystallin (natural protein, human, UniProt P02511 1-175, looked up)
chain: MDIAIHHPWIRRPFFPFHSPSRLFDQFFGEHLLESDLFPTSTSLSPFYLRPPSFLRAPSWFDTGLSEMRLEKDRFSVNLDVKHFSPEELKVKVLGDVIEVHGKHEERQDEHGFISREFHRKYRIPADVDPLTITSSLSSDGVLTVNGPRKQVSGPERTIPITREEKPAVTAAPKK
notes: αB crystallin, human, open reading frame of the full-length gene in pET28; Homo-oligomer in solution; No removal of the His tag is mentioned; also called alpha-B crystallin; source: E. coli BL21(DE3), purified (Ni-NTA, size-exclusion chromatography)
  binding result: binds
